# Experimental data as given in paper PMC2680067 (European journal of human genetics : EJHG, 2008).
# B1: myc-EGFP-Trim50 (full-length mouse Trim50), expressed in U2OS cells (natural protein)
# chain: MAWRLTVPELQDQLQCPICLEVFKEPLMLQCGHSYCKDCLDNLSQHLDSELCCPVCRQSVDCSSSPPNVSLARVIDALRLPGDIEPTVCVHHRNPLSLFCEKDQEFICGLCGLLGSHQHHRVTPVSTVYSRMKEELAGRISELKEEHRNVEEHIGKLVNNRTRIINESDVFSWVIRREFQELHHLVDEEKARCLEGLEGHTRGLVASLDMQLEQAQGTQERLAQAEQVLEQFGNESHHEFIRFHSVASRAEVQQARPLEGVFSPISFKPALHQADIKLTVWKRLFRKVLPAPASLKLDPATAHPLLELSKGNTVVHCGLLAQRRASQPERFDYSTCVLASKGFSWGRHYWEVVVGSKSDWRLGVIKGTASRKGKLNKSPEHGVWLIGLKEGRVYEAFGCPRLPLPVAGHPHRIGVYLHYEQGELTFFDADRPDDLRTLYTFQADFQGKLYPILDTCWHERGSNSLPMVLPPPSGPGHFTLGQV
# Target: the molecule itself
# Test: cross-linking
protein,measurement,value
B1,stoichiometry N,3
